Patent publication US20230248800A1 (PHARMAIN, published 2023)

B1: Mpa-Tyr-Phe-Hgn-Asn-Cys-Pro-Lys(X)a-Gly-NH2; (X)a = (Gly)9-Ac [SEQ ID NO. 26] (peptide)
peptide: XFXNCPXG
modifications: Mpa at position 1, disulfide bond between Mpa and Cys; Hgn at position 4; (Gly)9-Ac on the side chain of Lys 8; C-terminal amide
B2: Mpa-Tyr-Phe-Hgn-Asn-Cys-Pro-Lys(X)a-Gly-NH2; (X)a = Lauric acid [SEQ ID NO. 27] (peptide)
peptide: XFXNCPXG
modifications: Mpa at position 1, disulfide bond between Mpa and Cys; Hgn at position 4; lauric acid on the side chain of Lys 8; C-terminal amide
B3: Mpa-Tyr-Phe-Hgn-Asn-Cys-Pro-Lys(X)a-Gly-NH2; (X)a = Ac [SEQ ID NO. 28] (peptide)
peptide: XFXNCPXG
modifications: Mpa at position 1, disulfide bond between Mpa and Cys; Hgn at position 4; acetyl (Ac) on the side chain of Lys 8; C-terminal amide
B4: Mpa-Tyr-Phe-Hgn-Asn-Cys-Pro-Lys(X)a-Gly-NH2; (X)a = Dap [SEQ ID NO. 29] (peptide)
peptide: XFXNCPXG
modifications: Mpa at position 1, disulfide bond between Mpa and Cys; Hgn at position 4; Dap on the side chain of Lys 8; C-terminal amide
B5: Mpa-Tyr-Phe-Hgn-Asn-Cys-Pro-Dap-Gly-NH2 [SEQ ID NO. 17] (peptide)
peptide: XFXNCPXG
modifications: Mpa at position 1, disulfide bond between Mpa and Cys; Hgn at position 4; Dap at position 8; C-terminal amide
B6: Mpa-Tyr-Phe-Hgn-Asn-Cys-Pro-dLys-Gly-NH2 (note: dLys = D-Lys) [SEQ ID NO. 18] (peptide)
peptide: XFXNCPKG
modifications: Mpa at position 1, disulfide bond between Mpa and Cys; Hgn at position 4; D-Lys at position 8; C-terminal amide
B7: Mpa-Tyr-Phe-Hgn-Asn-Cys-Pro-Lys(12-aminododecanoic acid)-Gly-NH2 [SEQ ID NO. 19] (peptide)
peptide: XFXNCPXG
modifications: Mpa at position 1, disulfide bond between Mpa and Cys; Hgn at position 4; 12-aminododecanoic acid on the side chain of Lys 8; C-terminal amide
B8: Mpa-Tyr-Phe-Hgn-Asn-Cys-Pro-Lys-Gly-NH2 [SEQ ID NO. 25] (peptide)
peptide: XFXNCPKG
modifications: Mpa (mercaptopropionic acid) at position 1, disulfide bond between Mpa and Cys; Hgn (homoglutamine) at position 4; C-terminal amide
B9: Mpa-Tyr-Phe-Gln-Asn-Cys-Pro-Lys(X)a-Gly-NH2; (X)a = (Gly)6 [SEQ ID NO. 20] (peptide)
peptide: XFQNCPXG
modifications: Mpa at position 1, disulfide bond between Mpa and Cys; (Gly)6 on the side chain of Lys 8; C-terminal amide
B10: Mpa-Tyr-Phe-Gln-Asn-Cys-Pro-Lys(X)a-Gly-NH2; (X)a = (Gly)9 [SEQ ID NO. 23] (peptide)
peptide: XFQNCPXG
modifications: Mpa at position 1, disulfide bond between Mpa and Cys; (Gly)9 on the side chain of Lys 8; C-terminal amide

target: T1, human V1a receptor (human, UniProt P37288 1-418); assay: cell-based or functional assay
T1 sequence (P37288 whole entry): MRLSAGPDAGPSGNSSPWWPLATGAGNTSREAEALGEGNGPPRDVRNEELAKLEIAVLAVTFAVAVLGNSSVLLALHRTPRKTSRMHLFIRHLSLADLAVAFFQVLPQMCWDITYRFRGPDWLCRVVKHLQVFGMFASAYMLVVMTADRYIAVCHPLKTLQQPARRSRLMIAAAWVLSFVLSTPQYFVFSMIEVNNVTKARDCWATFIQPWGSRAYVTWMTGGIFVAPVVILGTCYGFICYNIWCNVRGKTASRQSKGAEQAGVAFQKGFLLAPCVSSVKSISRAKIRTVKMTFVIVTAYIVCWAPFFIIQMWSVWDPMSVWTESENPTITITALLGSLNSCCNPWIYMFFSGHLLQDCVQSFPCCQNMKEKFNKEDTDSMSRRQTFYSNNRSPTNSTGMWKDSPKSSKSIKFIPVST

Binder | Estimated V1a EC50 (calcium flux) [µM] | V1a Highest agonist effect (% of AVP)
B1 | > 10 | 40 % of AVP
B2 | > 10 | 
B3 | > 10 | 30 % of AVP
B4 | 1.34 | 7.5 % of AVP
B5 | > 10 | 3.5 % of AVP
B6 | > 10 | 0.2 % of AVP
B7 | > 10 | 2.5 % of AVP
B8 | 0.0052 | 42.8 % of AVP

target: T1, human V1a receptor; assay: cell-based or functional assay; remark: another data set of the same source

Binder | Estimated V1a EC50 (calcium flux) [nM]
B9 | 27.3
B10 | 12.6
